# Results from the Human Domainome abundance scans (Beltran et al. 2025).
# ± gives the uncertainty stated by the source.
# B1: Segment polarity protein dishevelled homolog DVL-3, residues 2 to 81; numbered along this chain, Q92997 (parent)
# chain: GETKIIYHLDGQETPYLVKLPLPAERVTLADFKGVLQRPSYKFFFKSMDDDFGVVKEEISDDNAKLPCFNGRVVSWLVSA
# Variants of: B1
# Test: abundance fitness (aPCA) (normalised: wild type 0, dead -1); higher = more abundant; growth selection in yeast, the domain comes from the species named
# Conditions: Homo sapiens
row,Variant,abundance fitness
1,F32W,-0.61 ± 0.1
2,F43A,-0.552 ± 0.093
3,N63C,-0.157 ± 0.087
4,G34I,-0.519 ± 0.24
5,D10N,-0.507 ± 0.14
6,F69C,-0.148 ± 0.062
7,P21D,-0.253 ± 0.096
8,D61S,-0.594 ± 0.082
9,E13I,-0.184 ± 0.083
10,R72I,0.269 ± 0.049
11,C68A,-0.003 ± 0.087
12,V73E,-0.786 ± 0.24
13,G53N,0.563 ± 0.093
14,F69P,-0.918 ± 0.26
15,P23L,-0.682 ± 0.1
16,A30T,-0.795 ± 0.15
17,K42P,-0.763 ± 0.15
18,D31C,-0.359 ± 0.13
19,P21A,-0.169 ± 0.057
20,G1A,-0.084 ± 0.074
21,P15S,-0.078 ± 0.058
22,A64I,-0.414 ± 0.26
23,T3D,-0.448 ± 0.11
24,F43L,-0.693 ± 0.11

row,Variant,abundance fitness
1,R26I,-0.34 ± 0.14
2,V54W,0.13 ± 0.052
3,V27R,-0.875 ± 0.087
4,S47W,-0.519 ± 0.082
5,V55W,-0.189 ± 0.061
6,A30W,-0.517 ± 0.09
7,K65H,0.091 ± 0.16
8,N63L,-0.615 ± 0.08
9,V78M,-0.19 ± 0.16
10,L17Y,0.258 ± 0.086
11,F32G,-0.916 ± 0.1
12,V55D,-0.259 ± 0.12
13,V78R,-0.322 ± 0.1
14,K56W,0.282 ± 0.048
15,E57P,-0.475 ± 0.095
16,N70D,0.009 ± 0.065
17,E25N,-0.006 ± 0.095
18,E58T,-0.456 ± 0.098
19,Q37P,0.092 ± 0.055
20,L20T,-0.836 ± 0.17
21,K19I,0.314 ± 0.073
22,F32K,-1.01 ± 0.21
23,D50Q,-0.041 ± 0.078
24,A80N,0.11 ± 0.095

row,Variant,abundance fitness
1,P67C,-0.948 ± 0.21
2,T3K,-0.635 ± 0.12
3,D49K,0.203 ± 0.084
4,P15L,-0.654 ± 0.092
5,E57V,0.254 ± 0.049
6,K19N,-0.133 ± 0.097
7,G34T,-0.016 ± 0.078
8,S60G,-0.572 ± 0.055
9,V54M,-0.188 ± 0.079
10,L17T,0.479 ± 0.049
11,V73Q,-0.477 ± 0.46
12,Q12F,-0.227 ± 0.1
13,G34M,0.042 ± 0.072
14,E13H,-0.473 ± 0.1
15,N70A,-0.602 ± 0.12
16,E13T,-0.129 ± 0.076
17,F69N,-0.361 ± 0.085
18,L77R,-0.903 ± 0.14
19,E13K,0.064 ± 0.082
20,E25I,-0.658 ± 0.25
21,V27S,-0.675 ± 0.1
22,S75N,-0.899 ± 0.12
23,E25W,-0.457 ± 0.095
24,A24V,-0.42 ± 0.074

row,Variant,abundance fitness
1,V74A,-0.585 ± 0.15
2,K42D,-0.953 ± 0.23
3,S79Y,-0.864 ± 0.18
4,S75K,-0.967 ± 0.29
5,K19F,-0.215 ± 0.12
6,A80I,-0.004 ± 0.082
7,A80S,0.088 ± 0.067
8,F44Q,-0.745 ± 0.13
9,T14P,-0.129 ± 0.079
10,E25G,-0.096 ± 0.048
11,V55I,0.151 ± 0.07
12,V18L,-0.054 ± 0.049
13,K46S,-0.196 ± 0.064
14,I59W,-0.724 ± 0.094
15,L20D,-0.68 ± 0.14
16,E2P,-0.491 ± 0.11
17,K56Y,0.592 ± 0.083
18,W76L,-0.842 ± 0.12
19,V35P,-0.869 ± 0.18
20,R38C,0.139 ± 0.079
21,D62A,-0.875 ± 0.14
22,P39G,0.062 ± 0.039
23,W76Q,-0.943 ± 0.17
24,D61M,-0.335 ± 0.11

row,Variant,abundance fitness
1,C68Q,-0.189 ± 0.23
2,A80V,-0.105 ± 0.11
3,G34W,-0.649 ± 0.11
4,R26Y,-0.414 ± 0.13
5,C68R,-0.875 ± 0.16
6,I59T,-0.811 ± 0.12
7,L77I,-0.358 ± 0.088
8,Y7N,-0.636 ± 0.16
9,K65L,-0.005 ± 0.06
10,A30V,-0.742 ± 0.098
11,P23Q,-0.731 ± 0.13
12,D51T,0.166 ± 0.067
13,V74F,-0.066 ± 0.056
14,L36E,-0.728 ± 0.14
15,N70V,-0.593 ± 0.077
16,D50E,-0.184 ± 0.13
17,P21N,0.003 ± 0.091
18,G34P,-1.03 ± 0.21
19,F45L,-0.775 ± 0.093
20,Q12M,0.063 ± 0.088
21,D49I,-0.231 ± 0.13
22,V27F,-0.154 ± 0.12
23,S75M,-0.726 ± 0.2
24,L20C,-0.632 ± 0.13

row,Variant,abundance fitness
1,E2D,-0.516 ± 0.11
2,P15Q,-0.064 ± 0.077
3,R26G,-0.441 ± 0.057
4,L77N,-0.751 ± 0.12
5,L29G,-0.643 ± 0.065
6,E57W,-0.526 ± 0.097
7,F69K,-0.146 ± 0.12
8,L17D,-0.677 ± 0.2
9,V27Y,-0.651 ± 0.23
10,P23D,-0.469 ± 0.13
11,F44I,-0.624 ± 0.13
12,R38F,-0.142 ± 0.12
13,T28G,-0.597 ± 0.064
14,C68G,-0.699 ± 0.1
15,K33T,-0.618 ± 0.13
16,D61F,-0.52 ± 0.17
17,A30D,-0.967 ± 0.2
18,L66A,-0.822 ± 0.12
19,R38P,-0.341 ± 0.1
20,D62G,-0.818 ± 0.093
21,F45N,-0.407 ± 0.16
22,I5H,-0.514 ± 0.17
23,H8S,-0.617 ± 0.095
24,K65R,-0.032 ± 0.049

row,Variant,abundance fitness
1,R38H,0.001 ± 0.11
2,D10R,-0.696 ± 0.069
3,F52Y,-0.063 ± 0.082
4,L9R,-0.704 ± 0.068
5,A80C,-0.015 ± 0.1
6,V27A,-0.478 ± 0.079
7,N70R,-0.249 ± 0.077
8,R26M,-0.276 ± 0.088
9,F69E,-0.108 ± 0.17
10,V18Y,-0.589 ± 0.14
11,A80R,-0.164 ± 0.14
12,V73W,-0.589 ± 0.18
13,V35K,-0.365 ± 0.1
14,L36D,-0.37 ± 0.14
15,Y16V,-0.115 ± 0.055
16,F69S,-0.163 ± 0.057
17,K46E,0.277 ± 0.052
18,G1I,-0.324 ± 0.26
19,E13Q,-0.034 ± 0.091
20,K33E,-0.672 ± 0.12
21,D61K,-0.984 ± 0.18
22,F32I,-0.469 ± 0.16
23,Q12E,0.219 ± 0.08
